Data published in US12060433B2, “CD73 inhibitor and A2A/A2B adenosine receptor inhibitor combination therapy” (Incyte Corporation, priority 2020, dated 2024).

Key:
Type in all cases: cell-based
[1] = molecular target: T1, cellular CD73 on A375 cells (Homo sapiens, UniProt P21589); test: Cellular CD73 inhibition (AMP-Glo), A375 cells; conditions: 100 μM AMP, 3 hours
T1 construct: endogenous in cells; host or cells: A375
T1 sequence (P21589 27-549): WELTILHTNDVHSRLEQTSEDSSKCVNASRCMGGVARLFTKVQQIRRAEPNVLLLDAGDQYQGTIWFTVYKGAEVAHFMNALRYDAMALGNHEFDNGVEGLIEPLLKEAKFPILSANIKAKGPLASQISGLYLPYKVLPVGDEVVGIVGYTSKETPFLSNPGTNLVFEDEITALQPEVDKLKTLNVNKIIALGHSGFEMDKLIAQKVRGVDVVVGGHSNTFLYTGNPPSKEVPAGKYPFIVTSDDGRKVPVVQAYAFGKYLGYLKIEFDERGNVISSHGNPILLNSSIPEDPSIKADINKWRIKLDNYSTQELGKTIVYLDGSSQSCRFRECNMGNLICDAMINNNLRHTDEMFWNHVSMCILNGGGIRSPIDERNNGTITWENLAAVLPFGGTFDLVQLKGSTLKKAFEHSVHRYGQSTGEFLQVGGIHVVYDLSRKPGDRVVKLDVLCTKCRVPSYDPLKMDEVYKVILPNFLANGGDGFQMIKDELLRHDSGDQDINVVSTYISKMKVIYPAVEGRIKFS
Description: To measure ability of anti-CD73 antibody to inhibit CD73 activity on cells, A375 and MDA-MB-231 cells were washed with serum free RPMI media (ThermoFisher) and plated in 96-well plates at a concentration of 8×10^4 cells/well for A375 or 1×10^4 cells/well for MDA-MB-231. The cells were incubated with the indicated concentration of antibodies or APCP at 37° C. 5% C02 for 30 minutes (FIG. 3A, FIG. 3B, and FIG. 3C). Next, adenosine monophosphate (AMP) was added to a final concentration of 100 μM and cells were incubated an additional 3 hours at 37° C. 5% CO2. Plates were centrifuged for 1-2 minutes at 300 g and 25 μL of supernatant was transferred into a new 96-well plates. AMP-Glo Assay was used according to the manufacturer's instructions (Promega). Relative luminescence unit (RLU) is directly correlated with the AMP concentration in this assay. Results are depicted in FIG. 3A, FIG. 3B, and FIG. 3C. The ability of 3-[…] to inhibit CD73 activity on cells was evaluated as described in Example 3, above. Results are depicted in FIG. 8A and FIG. 8B.

[2] = molecular target: T2, cellular CD73 on MDA-MB-231 cells (Homo sapiens, UniProt P21589); test: Cellular CD73 inhibition (AMP-Glo), MDA-MB-231 cells; conditions: 100 μM AMP, 3 hours
T2 construct: endogenous in cells; host or cells: MDA-MB-231
T2 sequence (P21589 27-549): T1 sequence (P21589 27-549)
Description: To measure ability of anti-CD73 antibody to inhibit CD73 activity on cells, A375 and MDA-MB-231 cells were washed with serum free RPMI media (ThermoFisher) and plated in 96-well plates at a concentration of 8×10^4 cells/well for A375 or 1×10^4 cells/well for MDA-MB-231. The cells were incubated with the indicated concentration of antibodies or APCP at 37° C. 5% C02 for 30 minutes (FIG. 3A, FIG. 3B, and FIG. 3C). Next, adenosine monophosphate (AMP) was added to a final concentration of 100 μM and cells were incubated an additional 3 hours at 37° C. 5% CO2. Plates were centrifuged for 1-2 minutes at 300 g and 25 μL of supernatant was transferred into a new 96-well plates. AMP-Glo Assay was used according to the manufacturer's instructions (Promega). Relative luminescence unit (RLU) is directly correlated with the AMP concentration in this assay. Results are depicted in FIG. 3A, FIG. 3B, and FIG. 3C. […] Results are depicted in FIG. 8A and FIG. 8B. […] Cells were incubated with the indicated concentration of antibodies or APCP at 37° C. 5% CO2 for 30 minutes. Next, AMP was added to a final concentration of 100 μM and cells were incubated an additional 3 hours at 37° C. 5% CO2. Plates were centrifuged for 1-2 minutes at 300 g and 25 μL of supernatant was transferred into a new 96-well plates. AMP-Glo Assay was used according to the manufacturer's instructions. […]

[3] = molecular target: T3, cell surface CD73 on A375 cells (Homo sapiens, UniProt P21589); test: Binding to cell surface CD73 by flow cytometry (GMFI), A375 cells; conditions: moderate levels of surface CD73
T3 construct: endogenous in cells; host or cells: A375
T3 sequence (P21589 27-549): T1 sequence (P21589 27-549)
Description: (§1) To test the binding of humanized and non-humanized CL25 clones to cell surface CD73, MDA-MB-231 or A375 cells were washed and added to 96-well plates at 5×10^4 cells/well. The cells were stained with the indicated concentration of antibodies for 30 minutes on ice (FIG. 2A and FIG. 2B). Next, the cells were washed and stained using goat anti-mouse secondary conjugated to phycoerythrin (PE) for 30 minutes on ice. The cells were then washed and analyzed by flow cytometry. Geometric mean fluorescence intensity (GMFI) of CD73 staining was graphed (FIG. 2A and FIG. 2B).

[4] = molecular target: T4, cell surface CD73 on MDA-MB-231 cells (Homo sapiens, UniProt P21589); test: Binding to cell surface CD73 by flow cytometry (GMFI), MDA-MB-231 cells; conditions: high levels of surface CD73
T4 construct: endogenous in cells; host or cells: MDA-MB-231
T4 sequence (P21589 27-549): T1 sequence (P21589 27-549)
Description: as §1
Cells were stained with the indicated concentration of antibodies for 1 hour on ice. Cells were then washed and stained goat anti-mouse secondary conjugated to PE for 30 minute on ice. Cells were then washed and analyzed by flow cytometry. The GMFI of CD73 staining is graphed (FIG. 13).

B1: CL25: chimeric anti-human CD73 monoclonal antibody, murine VH SEQ ID NO:26 and VL SEQ ID NO:27 with human IgG1 Fc (antibody, V domains shown)
VH: QVQLQQSGAELARPGASVKLSCRASGYTFTSYGLSWVKQRTGQGLEWIGEIYPGSGNTYYNEKFKGKATLTADKSSSTAYMELRSLTSEDSAVYFCARYDYLGSSYGFDYWGQGTTLTVSS
VL: DIVMTQSHKFMSTSVGDRVSITCKASQDVSTAVAWYQQKPGQSPKLLIYSASYRYNGVPDRFTGSGSGTDFTFTISSVQAEDLAVYYCQQHYNTPYTFGGGTKLEIK
modifications: human IgG1 Fc constant regions without entry
cellular CD73 inhibition [1]: good potency
cellular CD73 inhibition [2]: good potency
cell binding (GMFI) [3]: high potency binding
cell binding (GMFI) [4]: high potency binding
